Data: patent US20240285573A1, “PHARMACEUTICAL COMPOSITION FOR PREVENTING OR TREATING DIABETIC EYE DISEASE COMPRISING SGLT-2 INHIBITOR” (priority 2021, published 2024)

System: diabetic retinopathy animal model
Assay: Retinal fluorescein intensity (fundus imaging) in streptozotocin-induced diabetic retinopathy animal model
Assay type: in vivo, Brown Norway rats (BN/SsN Slc)
Settings: relative to normal control G1 = 100%, STZ-induced rats, right eye, intravitreal, non-vascular regions of retina
Procedure: Brown Norway rats (BN/SsN Slc) were used. […] Streptozotocin (STZ) was administered to animals determined to be healthy during the acclimation period, and blood sugar levels were measured on day 7 of administration. […] Streptozotocin was intravenously administered once at a dose of 60 mg/kg on the day of induction. G1 is a normal control in which diabetic retinopathy was not induced, G2 is a control in which diabetic retinopathy was induced and to which the vehicle of Comparative Example 1 was administered, and G3 and G4 are groups to which ranibizumab of Comparative Example 2 was administered as a positive control material, and G5 to G9 are groups to which the SGLT-2 inhibitors according to Examples 1 to 5 were administered, respectively. For intravitreal injection, animals were anesthetized, and a syringe with a 31-gauge needle was used to perform intravitreal injections into the right eye of the respective animals. The test material was administered as a single dose on the day of administration. The injection volume was either 1 μL/eye or 5 μL/eye. […] Retinal examination and efficacy were assessed using retinal fluorescent fundus photographs. […] The relative levels (%) of the measured values for each individual were analyzed, with the average value of the normal control group (G1) as the reference (100%), and comparisons were made between the groups. […]

B1: Ranibizumab (antibody, chains of the INN, looked up, V domains shown)
VH: EVQLVESGGGLVQPGGSLRLSCAASGYDFTHYGMNWVRQAPGKGLEWVGWINTYTGEPTYAADFKRRFTFSLDTSKSTAYLQMNSLRAEDTAVYYCAKYPYYYGTSHWYFDVWGQGTLVTVSS
VL: DIQLTQSPSSLSASVGDRVTITCSASQDISNYLNWYQQKPGKAPKVLIYFTSSLHSGVPSRFSGSGSGTDFTLTISSLQPEDFATYYCQQYSTVPWTFGQGTKVEIK
notes: LUCENTIS® purchased and administered as a positive control; anti-VEGF monoclonal antibody therapy
- Fluorescence intensity on 21st day (10 μg/eye, 1 μL/eye, once (G4)): 128.359%
- Fluorescence intensity on 21st day (50 μg/eye, 5 μL/eye, once (G3)): 125.586 ± 14.799 %
